Among the data in PMC8996150, “The structure of Synechococcus elongatus enolase reveals key aspects of phosphoenolpyruvate binding” (Acta Crystallographica. Section F, Structural Biology …, 2022) are Km, kcat and kcat/Km values, retold here.

Substrate in this series: O=C(O)[C@@H](CO)OP(=O)(O)O
Kind of series: purified protein. The format is biochemical, Synechococcus elongatus. To be noted: 100 mM HEPES pH 8.0, 100 mM KCl, 1.0 mM MgCl2, 30°C, dehydration direction.

B1: SeEN (Synechococcus elongatus enolase) (Synechococcus elongatus PCC 7942 = FACHB-805) (protein)
chain: MPDDYGTQIAEITAREILDSRGRPTVEAEVHLEDGSVGLAQVPSGASTGTFEAHELRDDDPSRYGGKGVQKAVENVSAIEDALIGLSALDQEGLDKAMIALDGTPNKKNLGANAILAVSLATAHAAATSLNLPLYRYLGGPLANVLPVPMMNVINGGAHADNNVDFQEFMIMPVGAPSFKEALRWGAEVFHALAKVLKDKGLATGVGDEGGFAPNLGSNKEALELLLTAIEAAGYKPGEQVALAMDVASSEFYKNGLYTCDGVSHEPAGMIGILADLVSQYPIVSIEDGLQEDDWSNWKTLTQQLGSTVQLVGDDLFVTNPDRLQSGIEQGVGNAVLIKLNQIGTLTETLRTIDLATRSGYRSVISHRSGETEDTTIADLAVATRAGQIKTGSLSRSERIAKYNRLLRIEAALGENALYAGAIGLGPKGR
notes: full length, synthetic codon-optimized gene in pET-42a(+), C-terminal … (8xHis) tag kept, E. coli Arctic Express (DE3); mainly monomer in gel filtration, dimer in PEP crystal, octamer predicted
With B1, the Km came to 61 ± 4 µM, the kcat was determined as 7.4 ± 0.1 s⁻¹ and the kcat/Km turned out to be 120000 M⁻¹ s⁻¹.
